Data on four substances can be found in patent publication US20060210984A1.

The target in test [1] is IFN-γ (human) (UniProt P01579). The experiment in a line: sandwich microarray in flow cell, chemiluminescence, cytokine 1 ng/ml, divided by chip-specific PNA calibration factor; Chip 3.
The target of test [2] is IFN-γ (human) (UniProt P01579). The experiment in a line: sandwich microarray in flow cell, chemiluminescence, cytokine 1 ng/ml; Chip 5.
In test [3] the target is IFN-γ (human) (UniProt P01579). The experiment in a line: sandwich microarray in flow cell, chemiluminescence, cytokine 1 ng/ml; Chip 2.
The target of test [4] is IFN-γ (human) (UniProt P01579). The experiment in a line: sandwich microarray in flow cell, chemiluminescence, cytokine 1 ng/ml, divided by chip-specific PNA calibration factor; Chip 2.
Test [5] has as its target IFN-γ (human) (UniProt P01579). The experiment in a line: sandwich microarray in flow cell, chemiluminescence, cytokine 1 ng/ml, divided by chip-specific PNA calibration factor; Chip 1.
Test [6] deals with IFN-γ (human) (UniProt P01579). The experiment in a line: sandwich microarray in flow cell, chemiluminescence, cytokine 1 ng/ml, divided by chip-specific PNA calibration factor; AVG of Chips 1-5.
The target in test [7] is IFN-γ (human) (UniProt P01579). The experiment in a line: sandwich microarray in flow cell, chemiluminescence, cytokine 1 ng/ml; AVG of Chips 1-5.
Test [8] has as its target IFN-γ (human) (UniProt P01579). The experiment in a line: sandwich microarray in flow cell, chemiluminescence, cytokine 1 ng/ml; Chip 1.
For test [9], the target named is IFN-γ (human) (UniProt P01579). The experiment in a line: sandwich microarray in flow cell, chemiluminescence, cytokine 1 ng/ml, divided by chip-specific PNA calibration factor; Chip 5.
Test [10] concerns the target IFN-γ (human) (UniProt P01579). The experiment in a line: sandwich microarray in flow cell, chemiluminescence, cytokine 1 ng/ml; Chip 3.
The target in test [11] is IFN-γ (human) (UniProt P01579). The experiment in a line: sandwich microarray in flow cell, chemiluminescence, cytokine 1 ng/ml; Chip 4.
In test [12] the target is IFN-γ (human) (UniProt P01579). The experiment in a line: sandwich microarray in flow cell, chemiluminescence, cytokine 1 ng/ml, divided by chip-specific PNA calibration factor; Chip 4.
Test [13] concerns the target IL-1a (human) (UniProt P01583). The experiment in a line: sandwich microarray in flow cell, chemiluminescence, cytokine 1 ng/ml, divided by chip-specific PNA calibration factor; Chip 3.
Sequence of UniProt P01583 (P01583 113-271 limits assumed): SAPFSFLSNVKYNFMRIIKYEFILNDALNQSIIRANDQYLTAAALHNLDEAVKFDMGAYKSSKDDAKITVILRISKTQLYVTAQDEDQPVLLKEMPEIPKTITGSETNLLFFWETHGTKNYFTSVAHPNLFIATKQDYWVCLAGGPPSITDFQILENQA
Test [14] has as its target IL-1a (human) (UniProt P01583). The experiment in a line: sandwich microarray in flow cell, chemiluminescence, cytokine 1 ng/ml; Chip 5.
Test [15] has as its target IL-1a (human) (UniProt P01583). The experiment in a line: sandwich microarray in flow cell, chemiluminescence, cytokine 1 ng/ml; Chip 2.
Test [16] addresses IL-1a (human) (UniProt P01583). The experiment in a line: sandwich microarray in flow cell, chemiluminescence, cytokine 1 ng/ml, divided by chip-specific PNA calibration factor; Chip 2.
Test [17] has as its target IL-1a (human) (UniProt P01583). The experiment in a line: sandwich microarray in flow cell, chemiluminescence, cytokine 1 ng/ml, divided by chip-specific PNA calibration factor; Chip 1.
In test [18] the target is IL-1a (human) (UniProt P01583). The experiment in a line: sandwich microarray in flow cell, chemiluminescence, cytokine 1 ng/ml, divided by chip-specific PNA calibration factor; AVG of Chips 1-5.
In test [19] the target is IL-1a (human) (UniProt P01583). The experiment in a line: sandwich microarray in flow cell, chemiluminescence, cytokine 1 ng/ml; AVG of Chips 1-5.
For test [20], the target named is IL-1a (human) (UniProt P01583). The experiment in a line: sandwich microarray in flow cell, chemiluminescence, cytokine 1 ng/ml; Chip 1.
In test [21] the target is IL-1a (human) (UniProt P01583). The experiment in a line: sandwich microarray in flow cell, chemiluminescence, cytokine 1 ng/ml, divided by chip-specific PNA calibration factor; Chip 5.
Test [22] deals with IL-1a (human) (UniProt P01583). The experiment in a line: sandwich microarray in flow cell, chemiluminescence, cytokine 1 ng/ml; Chip 3.
Test [23] deals with IL-1a (human) (UniProt P01583). The experiment in a line: sandwich microarray in flow cell, chemiluminescence, cytokine 1 ng/ml; Chip 4.
The target of test [24] is IL-1a (human) (UniProt P01583). The experiment in a line: sandwich microarray in flow cell, chemiluminescence, cytokine 1 ng/ml, divided by chip-specific PNA calibration factor; Chip 4.
Test [25] addresses IL-2 (human) (UniProt P60568). The experiment in a line: sandwich microarray in flow cell, chemiluminescence, cytokine 1 ng/ml, divided by chip-specific PNA calibration factor; Chip 3.
Sequence of UniProt P60568 (P60568 21-153 limits assumed): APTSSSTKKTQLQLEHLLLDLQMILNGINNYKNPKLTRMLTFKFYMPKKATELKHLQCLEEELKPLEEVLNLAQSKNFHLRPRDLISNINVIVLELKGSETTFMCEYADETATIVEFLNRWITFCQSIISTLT
Test [26] concerns the target IL-2 (human) (UniProt P60568). The experiment in a line: sandwich microarray in flow cell, chemiluminescence, cytokine 1 ng/ml; Chip 5.
Test [27] deals with IL-2 (human) (UniProt P60568). The experiment in a line: sandwich microarray in flow cell, chemiluminescence, cytokine 1 ng/ml; Chip 2.
Test [28] concerns the target IL-2 (human) (UniProt P60568). The experiment in a line: sandwich microarray in flow cell, chemiluminescence, cytokine 1 ng/ml, divided by chip-specific PNA calibration factor; Chip 2.
The target in test [29] is IL-2 (human) (UniProt P60568). The experiment in a line: sandwich microarray in flow cell, chemiluminescence, cytokine 1 ng/ml, divided by chip-specific PNA calibration factor; Chip 1.
The target in test [30] is IL-2 (human) (UniProt P60568). The experiment in a line: sandwich microarray in flow cell, chemiluminescence, cytokine 1 ng/ml, divided by chip-specific PNA calibration factor; AVG of Chips 1-5.
Test [31] deals with IL-2 (human) (UniProt P60568). The experiment in a line: sandwich microarray in flow cell, chemiluminescence, cytokine 1 ng/ml; AVG of Chips 1-5.
Test [32] concerns the target IL-2 (human) (UniProt P60568). The experiment in a line: sandwich microarray in flow cell, chemiluminescence, cytokine 1 ng/ml; Chip 1.
Test [33] deals with IL-2 (human) (UniProt P60568). The experiment in a line: sandwich microarray in flow cell, chemiluminescence, cytokine 1 ng/ml, divided by chip-specific PNA calibration factor; Chip 5.
Test [34] concerns the target IL-2 (human) (UniProt P60568). The experiment in a line: sandwich microarray in flow cell, chemiluminescence, cytokine 1 ng/ml; Chip 3.
Test [35] addresses IL-2 (human) (UniProt P60568). The experiment in a line: sandwich microarray in flow cell, chemiluminescence, cytokine 1 ng/ml; Chip 4.
Test [36] addresses IL-2 (human) (UniProt P60568). The experiment in a line: sandwich microarray in flow cell, chemiluminescence, cytokine 1 ng/ml, divided by chip-specific PNA calibration factor; Chip 4.
For test [37], the target named is IL-12p70 (human) (UniProt P29459). The experiment in a line: sandwich microarray in flow cell, chemiluminescence, cytokine 1 ng/ml, divided by chip-specific PNA calibration factor; Chip 3.
Sequence of UniProt P29459 (P29459 23-219 limits assumed, chain 1 of 2): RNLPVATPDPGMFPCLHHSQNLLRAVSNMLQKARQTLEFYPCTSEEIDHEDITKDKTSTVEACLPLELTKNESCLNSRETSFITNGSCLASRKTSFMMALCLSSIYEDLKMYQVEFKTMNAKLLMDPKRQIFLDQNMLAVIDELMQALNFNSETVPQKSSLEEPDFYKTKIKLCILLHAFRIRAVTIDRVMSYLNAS
Sequence of UniProt P29459 (P29460 23-328 limits assumed, chain 2 of 2, further chain): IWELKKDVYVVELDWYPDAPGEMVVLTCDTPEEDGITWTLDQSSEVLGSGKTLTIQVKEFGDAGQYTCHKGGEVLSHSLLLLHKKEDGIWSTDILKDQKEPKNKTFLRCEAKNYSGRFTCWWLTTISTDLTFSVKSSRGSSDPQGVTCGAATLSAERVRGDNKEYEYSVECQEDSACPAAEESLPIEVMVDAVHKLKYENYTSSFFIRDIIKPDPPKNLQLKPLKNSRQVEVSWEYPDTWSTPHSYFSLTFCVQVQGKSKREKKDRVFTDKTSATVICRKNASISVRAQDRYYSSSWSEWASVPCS
The target is the same in test [38]. The experiment in a line: sandwich microarray in flow cell, chemiluminescence, cytokine 1 ng/ml; Chip 5.
The target is the same in test [39]. The experiment in a line: sandwich microarray in flow cell, chemiluminescence, cytokine 1 ng/ml; Chip 2.
The target is the same in test [40]. The experiment in a line: sandwich microarray in flow cell, chemiluminescence, cytokine 1 ng/ml, divided by chip-specific PNA calibration factor; Chip 2.
Test [41] has the same target. The experiment in a line: sandwich microarray in flow cell, chemiluminescence, cytokine 1 ng/ml, divided by chip-specific PNA calibration factor; Chip 1.
The target is the same in test [42]. The experiment in a line: sandwich microarray in flow cell, chemiluminescence, cytokine 1 ng/ml, divided by chip-specific PNA calibration factor; AVG of Chips 1-5.
Test [43] shares this target. The experiment in a line: sandwich microarray in flow cell, chemiluminescence, cytokine 1 ng/ml; AVG of Chips 1-5.
The target is the same in test [44]. The experiment in a line: sandwich microarray in flow cell, chemiluminescence, cytokine 1 ng/ml; Chip 1.
Test [45] has the same target. The experiment in a line: sandwich microarray in flow cell, chemiluminescence, cytokine 1 ng/ml, divided by chip-specific PNA calibration factor; Chip 5.
For test [46] the target is unchanged. The experiment in a line: sandwich microarray in flow cell, chemiluminescence, cytokine 1 ng/ml; Chip 3.
The target is the same in test [47]. The experiment in a line: sandwich microarray in flow cell, chemiluminescence, cytokine 1 ng/ml; Chip 4.
Test [48] has the same target. The experiment in a line: sandwich microarray in flow cell, chemiluminescence, cytokine 1 ng/ml, divided by chip-specific PNA calibration factor; Chip 4.

Sequence of UniProt P01579 (P01579 24-166 limits assumed): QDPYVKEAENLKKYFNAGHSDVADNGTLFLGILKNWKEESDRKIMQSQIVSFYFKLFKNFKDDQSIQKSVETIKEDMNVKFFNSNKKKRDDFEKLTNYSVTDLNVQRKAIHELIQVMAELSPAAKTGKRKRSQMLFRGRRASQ

As to “MAb IFN-g (monoclonal capture antibody of the anti-human IFN-γ OptEIA matched pair, BD Biosciences-Pharmingen)”, the chemiluminescent spot intensity (Calibrated Data) in [1] was 10; in [4], 0; in test [5], 0; in [6], 2.88; in test [9], 0; in test [12], 4.39. Besides, the chemiluminescent spot intensity (Un-Calibrated Data) was determined as 0 in test [2]; 0 in test [3]; 2.4 in [7]; 0 in test [8]; 10 in test [10]; 2 in test [11].
As to “MAb IL-1a (monoclonal capture antibody of the anti-human IL-1a OptEIA matched pair, BD Biosciences-Pharmingen)”, the chemiluminescent spot intensity (Calibrated Data) came to 312 in test [13]; 325 in test [16]; 293 in test [17]; 321 in test [18]; 373 in test [21]; 301 in test [24]. Further, the chemiluminescent spot intensity (Un-Calibrated Data) in [14] turned out to be 121; in test [15], 95; in test [19], 168; in test [20], 175; in test [22], 312; in test [23], 137.
For “MAb IL-2 (monoclonal capture antibody of the anti-human IL-2 OptEIA matched pair, BD Biosciences-Pharmingen)”, the chemiluminescent spot intensity (Calibrated Data) in test [25] turned out to be 441; in [28] it was 434; in test [29] it was 421; in test [30] it was 423; in test [33] it was 389; in test [36] it was 430. Also, the chemiluminescent spot intensity (Un-Calibrated Data) was found to be 126 in test [26]; 127 in test [27]; 228 in [31]; 251 in [32]; 441 in test [34]; 196 in test [35].
As for “MAb IL-12 p70 (monoclonal capture antibody of the anti-human IL-12p70 OptEIA matched pair, BD Biosciences-Pharmingen)”, the chemiluminescent spot intensity (Calibrated Data) in test [37] was determined as 956; in test [40], 872; in [41], 929; in test [42], 903; in test [45] it was 888; in test [48] it was 872. Further, the chemiluminescent spot intensity (Un-Calibrated Data) in test [38] was found to be 288; in [39] it was 255; in test [43], 490; in test [44], 554; in test [46], 956; in [47], 397.
